For this series, the target named is human APP (695 amino acid isoform), P05067.

B1: human ADAMTS4 (A disintegrin and metalloproteinase with thrombospondin motifs 4) (protein)
chain: FASLSRFVETLVVADDKMAAFHGAGLKRYLLTVMAAAAKAFKHPSIRNPVSLVVTRLVILGSGEEGPQVGPSAAQTLRSFCAWQRGLNTPEDSDPDHFDTAILFTRQDLCGVSTCDTLGMADVGTVCDPARSCAIVEDDGLQSAFTAAHELGHVFNMLHDNSKPCISLNGPLSTSRHVMAPVMAHVDPEEPWSPCSARFITDFLDNGYGHCLLDKPEAPLHLPVTFPGKDYDADRQCQLTFGPDSRHCPQLPPPCAALWCSGHLNGHAMCQTKHSPWADGTPCGPAQACMGGRCLHMDQLQDFNIPQAGGWGPWGPWGDCSRTCGGGVQFSSRDCTRPVPRNGGKYCEGRRTRFRSCNTEDCPTGSALTFREEQCAAYNHRTDLFKSFPGPMDWVPRYTGVAPQDQCKLTCQARALGYYYVLEPRVVDGTPCSPDSSSVCVQGRCIHAGCDRIIGSKKKFDKCMVCGGDGSGCSKQSGSFRKFRYGYNNVVTIPAGATHILVRQQGNAGHRSIYLALKLPDGSYALNGEYTLMPSPTDVVLPGAVSLRYSGATAASETLSGHGPLAQPLTLQVLVAGNPQDTRLRYSFFVPRPTPSTPRPTPQDWLHRRAQILEILRRRPWAGRK
With B1, the “production amounts of APP669-711 (Aβ(-3-40)) and APP669-709 (Aβ(-3-38)) in culture supernatant (IP-MS), ADAMTS4 vector:empty vector 10:1 in APP stable HEK” value is “tended to be rather slightly increased”.
